Reference: US6846640B2, “Time-resolved fluorescence assay for the detection of multimeric forms of A-beta 1-40” (Pharmacia & Upjohn Company, priority 2002, dated 2005)

Key:
[1] = target: T1, β-amyloid 1-40 (Homo sapiens, UniProt P05067); test: TRF aggregation assay for β-amyloid polypeptide aggregation; type: biochemical; settings: 50 ug/ml β-amyloid, 24 uM test compound, 2% DMSO, 37° C. for 24 hrs
T1 construct: Beta-amyloid 1-40 (Aβ) and biotin-labeled β-amyloid 1-40 peptides were purchased from Biosource; purchased Biosource (Camarillo, Calif.)
T1 sequence (P05067 672-711 limits assumed): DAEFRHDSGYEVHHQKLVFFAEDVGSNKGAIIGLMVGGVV
Experimental: Beta-amyloid 1-40 (Aβ) and biotin-labeled β-amyloid 1-40 peptides were purchased from Biosource (Camarillo, Calif.). β-amyloid and biotinylated amyloid stock solutions, diluted in 0.1% acetic acid and corrected for 80% peptide content, were diluted to 83 μg/ml and 42 μg/ml, respectively, in reaction buffer (Dulbecco's PBS pH 7.4, 0.02% Tween 20). An equal mixture of the two β-amyloid products was then brought to a final concentration of 62.5 μg/ml total β-amyloid, giving a final 2:1 ratio of unbiotinylated to biotinylated Aβ polypeptide. When analyzing aggregation in the presence of test compound, 5 ul of diluted test compound (120 uM in 10% DMSO) was added to each well being analyzed in a 384-well polystyrene plate (Nunc). Test compounds are added over a range of concentrations. Twenty microliters of the β-amyloid reaction mixture was dispensed into each well of the 384 well plate, giving the final assay conditions as 24 uM test compound, 2% DMSO, and 50 ug/ml β-amyloid in a final volume of 25 uL. Plates were then sealed with foil sealers (Corning), and incubated at 37° C. for 24 hrs. […] Plates were washed with reaction buffer and 75 uL of DELFIA Enhancement solution (Wallac) was added to each well and the plates read on TRF capable plate reader (excitation at 337 run and emission at 620 nm).

[2] = target: β amyloid (Homo sapiens, UniProt P05067); test: β-amyloid aggregation ELISA protocol (Howlett et al.); type: biochemical; settings: Aβ incubated overnight, 6E10 antibody
Chain of β amyloid (P05067 672-711 limits assumed): as above
Experimental: For the β-amyloid aggregation ELISA protocol (Howlett et al., supra), 96 uL diluted β amyloid solution (51 μg/ml) is added to a 96-well polystyrene plate in the presence of and absence of 2 μL of an aggregation inhibitor test compound diluted in DMSO. The Aβ is incubated overnight to allow for aggregation and an aliquot transferred to another 96-well polystyrene plate, precoated with anti-Aβ antibody (6E10, Senetek, Napa, Calif.) overnight, washed, and blocked with Dulbecco's PBS/1% BSA solution. […] The secondary, biotinylated antibody was bound with 200 μL Eu^3+-streptavidin (100 ng/ml) in DELFIA assay buffer, the excess washed off, and the plate developed in DELFIA enhancement solution and read on a TRF plate reader as outlined above.

Row | Compound | prevents Aβ aggregation [1] | inhibition of Aβ aggregation [2]
1 | QKLVFF [QKLVFF peptide] | 44% | 
2 | CO[C@H]1/C=C/O[C@@]2(C)Oc3c(C)c(O)c4c(O)c(c(/C=N/N5CCN(C)CC5)c(O)c4c3C2=O)NC(=O)/C(C)=C\C=C\[C@H](C)[C@H](O)[C@@H](C)[C@@H](O)[C@@H](C)[C@H](OC(C)=O)[C@@H]1C [rifampicin] |  | ~30%
